Laboratory results taken from the Immune Epitope Database (IEDB).

Tests used:
[1] = target: HLA-A*02:01; assay: IEDB peptide-MHC binding, purified MHC/competitive/radioactivity; filed as Kd, often an IC50 or EC50 that approximates it; ≥ and ≤ were set here for values at or beyond the usual limits of such assays; conditions: source organism: Trypanosoma cruzi
[2] = target: HLA-A*02:01; assay: IEDB peptide-MHC binding, purified MHC/competitive/radioactivity; ≥ and ≤ were set here for values at or beyond the usual limits of such assays; conditions: source organism: Trypanosoma cruzi

| Sequence | Kd [1] [nM] | IC50 [2] [nM] |
| --- | --- | --- |
| AACIVGCENV | ≥ 28200 | – |
| AANPHATFGV | – | 2950 |
| AASTLLYATV | – | 2980 |
| AIVFDHYDV | ≥ 43400 | – |
| AIVTCGAETL | ≥ 28200 | – |
| ALKNNGKVV | ≥ 43400 | – |
| ALSLAAVLV | – | 112 |
| ALSLAAVLVV | – | 324 |
| AMALIGDSTV | – | 148 |
| AVLVVMACL | – | 4150 |
| CLLTTSGVSA | 10400 | – |
| CLVPAATASL | – | 2540 |
| FANSKFTLVA | ≥ 43400 | – |
| FLAGHPLTNL | – | 14 |
| FLARLHAAA | – | 48 |
| FLGGGGAGI | – | 3580 |
| FTDNKSCVSL | 14400 | – |
| FTLVAPVSI | – | 363 |
| FTSAVLLLV | – | 10 |
| FTSAVLLLVV | – | 918 |
| GLLLLGLWGT | – | 62 |
| GLMNNAFEWI | – | 175 |

| Sequence | Kd [1] [nM] | IC50 [2] [nM] |
| --- | --- | --- |
| GLTFKGPGA | ≥ 43400 | – |
| GVQGGFVSA | ≥ 43400 | – |
| IILNGSLLT | – | 4330 |
| IVQENNGAV | ≥ 28200 | – |
| KALETDVPA | ≥ 43400 | – |
| KTWADEYLCV | – | 444 |
| KVVSLVILA | – | 409 |
| LAAVLVVMA | ≥ 22800 | – |
| LLGLWGTAA | 6260 | – |
| LLLGLWGTA | – | 944 |
| LLLGLWGTAA | – | 241 |
| LLLLGLWGTA | – | 888 |
| LLTTSGVSA | ≥ 28200 | – |
| LLTTSGVSAI | – | 1110 |
| LLVGYNDSA | ≥ 28200 | – |
| LLVGYNDSAA | ≥ 28200 | – |
| LMNNAFEWI | – | 395 |
| LMNNAFEWIV | – | 56 |
| LTFKGPGAWA | ≥ 43400 | – |
| LTNLSEQMLV | – | 3190 |
| LVQAFHSFRA | 6920 | – |
| LVYVNGVVV | 9070 | – |

| Sequence | Kd [1] [nM] | IC50 [2] [nM] |
| --- | --- | --- |
| MACLVPAAT | ≥ 26800 | – |
| MALIGDSTV | 17500 | – |
| MMSCSSEAT | – | 1170 |
| MTEQTDEAV | ≥ 43400 | – |
| MTSCVSEQL | – | 348 |
| MTYTGGVMT | ≥ 28200 | – |
| NVLLYNRLL | 6030 | – |
| QLDHGVLLV | – | 673 |
| QMDYSNGLFV | – | 61 |
| QMSCTDAACI | ≥ 28200 | – |
| QVHSSLSVV | ≥ 43400 | – |
| RALSLAAVL | – | 3880 |
| RIILNGSLL | ≥ 43400 | – |
| RLHLWLSDM | – | 4910 |
| RLLSPTTIV | – | 290 |
| RVFGLLLLGL | – | 355 |
| RVFTSAVLL | – | 661 |
| SIHVTVSNV | – | 3610 |
| SLSVVRPMT | 8560 | – |
| SLVYVNGVVV | – | 2880 |
| SMNATLVQA | – | 267 |
| STHCSGPSV | ≥ 28200 | – |

| Sequence | Kd [1] [nM] | IC50 [2] [nM] |
| --- | --- | --- |
| STSRVPYDI | ≥ 43400 | – |
| SVFRENLFL | – | 59 |
| SVPLNQCNWL | ≥ 28200 | – |
| TLLYATVEV | – | 68 |
| VAVNGPVAV | ≥ 28200 | – |
| VLLLVVVMM | ≥ 27900 | – |
| VLVVMACLV | 7350 | – |
| VMACLVPAA | – | 10 |
| VMMSCSSEA | – | 55 |
| VTLPTGQCL | ≥ 28200 | – |
| VVMACLVPAA | – | 98 |
| WADEYLCVNA | ≥ 43400 | – |
| WAFSAIGNV | 16700 | – |
| WIIKNSWTA | – | 186 |
| WIVQENNGA | 12800 | – |
| WLSDCGEAL | – | 228 |
| WMTYTGGVMT | ≥ 28200 | – |
| YATVEVPSL | 5500 | – |
| YVNGVVVATV | – | 466 |
